Results taken from patent US9144594B2, “Cathepsin L mediated diseases and associated methods and products” (University of Miami, priority 2005, dated 2015).

B1: dynK44A: dominant-negative dynamin mutant that cannot bind GTP (protein, UniProt Q05193 1-864, looked up, variant K44A)
Dynamin-1: MGNRGMEDLIPLVNRLQDAFSAIGQNADLDLPQIAVVGGQSAGASSVLENFVGRDFLPRGSGIVTRRPLVLQLVNATTEYAEFLHCKGKKFTDFEEVRLEIEAETDRVTGTNKGISPVPINLRVYSPHVLNLTLVDLPGMTKVPVGDQPPDIEFQIRDMLMQFVTKENCLILAVSPANSDLANSDALKVAKEVDPQGQRTIGVITKLDLMDEGTDARDVLENKLLPLRRGYIGVVNRSQKDIDGKKDITAALAAERKFFLSHPSYRHLADRMGTPYLQKVLNQQLTNHIRDTLPGLRNKLQSQLLSIEKEVEEYKNFRPDDPARKTKALLQMVQQFAVDFEKRIEGSGDQIDTYELSGGARINRIFHERFPFELVKMEFDEKELRREISYAIKNIHGIRTGLFTPDMAFETIVKKQVKKIREPCLKCVDMVISELISTVRQCTKKLQQYPRLREEMERIVTTHIREREGRTKEQVMLLIDIELAYMNTNHEDFIGFANAQQRSNQMNKKKTSGNQDEILVIRKGWLTINNIGIMKGGSKEYWFVLTAENLSWYKDDEEKEKKYMLSVDNLKLRDVEKGFMSSKHIFALFNTEQRNVYKDYRQLELACETQEEVDSWKASFLRAGVYPERVGDKEKASETEENGSDSFMHSMDPQLERQVETIRNLVDSYMAIVNKTVRDLMPKTIMHLMINNTKEFIFSELLANLYSCGDQNTLMEESAEQAQRRDEMLRMYHALKEALSIIGDINTTTVSTPMPPPVDDSWLQVQSVPAGRRSPTSSPTPQRRAPAVPPARPGSRGPAPGPPPAGSALGGAPPVPSRPGASPDPFGPPPQVPSRPNRAPPGVPSRSGQASPSRPESPRPPFDL
B2: dynL356Q, G358V: dynamin mutant (SEQ ID NO.3) not recognized by cathepsin L; ELSGGA mutated to EQSVGA (protein, listed as Homo sapiens)
chain: MGNRGMEDLIPLVNRLQDAFSAIGQNADLDLPQIAVVGGQSAGKSSVLENFVGRDFLPRGSGIVTRRPLVLQLVNATTEYAEFLHCKGKKFTDFEEVRLEIEAETDRVTGTNKGISPVPINLRVYSPHVLNLTLVDLPGMTKVPVGDQPPDIEFQIRDMLMQFVTKENCLILAVSPANSDLANSDALKVAKEVDPQGQRTIGVITKLDLMDEGTDARDVLENKLLPLRRGYIGVVNRSQKDIDGKKDITAALAAERKFFLSHPSYRHLADRMGTPYLQKVLNQQLTNHIRDTLPGLRNKLQSQLLSIEKEVEEYKNFRPDDPARKTKALLQMVQQFAVDFEKRIEGSGDQIDTYEQSVGARINRIFHERFPFELVKMEFDEKELRREISYAIKNIHGIRTGLFTPDMAFETIVKKQVKKIREPCLKCVDMVISELISTVRQCTKKLQQYPRLREEMERIVTTHIREREGRTKEQVMLLIDIELAYMNTNHEDFIGFANAQQRSNQMNKKKTSGNQDEILVIRKGWLTINNIGIMKGGSKEYWFVLTAENLSWYKDDEEKEKKYMLSVDNLKLRDVEKGFMSSKHIFALFNTEQRNVYKDYRQLELACETQEEVDSWKASFLRAGVYPERVGDKEKASETEENGSDSFMHSMDPQLERQVETIRNLVDSYMAIVNKTVRDLMPKTIMHLMINNTKEFIFSELLANLYSCGDQNTLMEESAEQAQRRDEMLRMYHALKEALSIIGDINTTTVSTPMPPPVDDSWLQVQSVPAGRRSPTSSPTPQRRAPAVPPARPGSRGPAPGPPPAGSALGGAPPVPSRPGASPDPFGPPPQVPSRPNRAPPGVPSRSGQASPSRPESPRPPFDL
B3: dynK694A: dominant activator dynamin mutant impaired in self-assembly (protein)
chain: MGNRGMEDLIPLVNRLQDAFSAIGQNADLDLPQIAVVGGQSAGKSSVLENFVGRDFLPRGSGIVTRRPLVLQLVNATTEYAEFLHCKGKKFTDFEEVRLEIEAETDRVTGTNKGISPVPINLRVYSPHVLNLTLVDLPGMTKVPVGDQPPDIEFQIRDMLMQFVTKENCLILAVSPANSDLANSDALKVAKEVDPQGQRTIGVITKLDLMDEGTDARDVLENKLLPLRRGYIGVVNRSQKDIDGKKDITAALAAERKFFLSHPSYRHLADRMGTPYLQKVLNQQLTNHIRDTLPGLRNKLQSQLLSIEKEVEEYKNFRPDDPARKTKALLQMVQQFAVDFEKRIEGSGDQIDTYELSGGARINRIFHERFPFELVKMEFDEKELRREISYAIKNIHGIRTGLFTPDMAFETIVKKQVKKIREPCLKCVDMVISELISTVRQCTKKLQQYPRLREEMERIVTTHIREREGRTKEQVMLLIDIELAYMNTNHEDFIGFANAQQRSNQMNKKKTSGNQDEILVIRKGWLTINNIGIMKGGSKEYWFVLTAENLSWYKDDEEKEKKYMLSVDNLKLRDVEKGFMSSKHIFALFNTEQRNVYKDYRQLELACETQEEVDSWKASFLRAGVYPERVGDKEKASETEENGSDSFMHSMDPQLERQVETIRNLVDSYMAIVNKTVRDLMPKTIMHLMINNTAEFIFSELLANLYSCGDQNTLMEESAEQAQRRDEMLRMYHALKEALSIIGDINTTTVSTPMPPPVDDSWLQVQSVPAGRRSPTSSPTPQRRAPAVPPARPGSRGPAPGPPPAGSALGGAPPVPSRPGASPDPFGPPPQVPSRPNRAPPGVPSRSGQASPSRPESPRPPFDL

Legend:
podocytes = assay: Podocyte motility, modified Boyden chamber assay; format: cell-based, mouse; conditions: adenoviral overexpression
Source text: This study examined the role of dynamin in actin dynamics of podocytes. An adenoviral expression system was utilized to obtain expression of various dynamin mutants with more than 90% infection efficiency in cultured differentiated mouse podocytes and analyzed the organization of the actin cytoskeleton, their migratory and endocytotic behavior (FIG. 1). […] This type of actin rearrangement in cultured podocytes is resembling actin rearrangement in damaged podocytes during proteinuria in situ (Smoyer and Mundel, 1998). […] Thus, the consequence on actin dynamics in podocytes was examined when dynamin is hyperactive by expressing known dominant activators, dynK694A and dynR725A (SEQ ID NO.4). Both mutants are predicted to live longer in the GTP-bound form. […] To further examine this surprising phenotype in a biological context, motility assays were performed next using a modified Boyden Chamber assay.
Podocyte migration was analyzed using a 12-well chemotaxis chamber (Neuro Probe) according to the manufacturer's protocol. In brief, differentiated podocytes were treated with 50 μg/ml of LPS or PAN for 24 h and then harvested for the migration assay. Bottom plates were coated with type-I collagen, while upper plates were loaded with equal number of cells (5×10^4) suspended in medium. The chamber was incubated at 37° C. for 4 h before unassembled. The membrane was then taken out, processed and finally stained with diamidino phenylindole (DAPI) (Vector). The average number of migrated cells was counted in four fields in six independent experiments.
Podocytes were grown under non-permissive conditions to 70% confluence. Cells were washed twice with 1×PBS and infected with 1.2 ml of serum-free DMEM media containing 100 μl transactivator virus, 100 μl virus expressing dyn1 or dyn2. After 2 h of infection at 37° C., media containing virus was replaced with full DMEM. If cells were treated with LPS or PAN, 50 μg/ml of LPS or 50 μg/ml PAN was added at this point. 18-24 h post-infection, cells were detached using trypsin and processed either for subcellular fractionation or tested in the motility assays as described in (Reiser et al., J Biol Chem 279, 34827-34832 (2004)). When stated, 20 μM of Z-FF-FMK CatL specific inhibitor (Calbiochem, San Diego, Calif.) was added simultaneously with addition of LPS.

[1] = tested on: LPS induced mouse proteinuria model; assay: LPS induced mouse proteinuria model, protein in urine (prevention and reversal by dynamin gene delivery); format: in vivo
Experimental: Next, it was examined whether gene transfer of dynR725A and dynL356Q, G358V was able to protect from LPS induced changes of podocyte FP and thus proteinuria (FIGS. 6A-B); (Table 2B). […] Whereas the application of wildtype dynamin was unable to protect from LPS induced podocyte FP effacement (data not shown) and proteinuria (0.63 mg/ml after 24 hours, p<0.05 and 1.18 mg/ml after 48 hours, p<0.04); table 2B, the co-administration of R725A together with LPS completely abolished the development of proteinuria after 24 hours (0.20 mg/ml). Podocyte FPs remained normal at this timepoint (FIG. 6B). The decline of R725A expression in podocytes was then associated with the development of proteinuria (1.25 mg/ml, 48 h). At this time point, there was noticeable podocyte FP effacement. The application of the cathepsin L resistant dynamin mutant L356Q, G358V together with LPS conferred a partial protection from proteinuria (0.47 mg/ml, P<0.05). This protection was associated with normal appearing podocyte FP (FIG. 6C). Although this protection was not as strong as the one provided by dynR725A, it was prolonged and was still present even after the second dose of LPS ([…], P<0.04). This observation argues that lower expression levels of dynL356Q, G358V are required to protect from LPS induced FP effacement but the presence of dynR725A has the most powerful protection.
Another set of experiments was carried out to study whether dynR725A and dynL356Q, G358V are also useful once there is already established podocyte damage and proteinuria (reversal experiments), (FIGS. 6C, D); (Table 2C). First LPS was injected in mice at 0 and 24 hours and the course of urinary protein loss was documented. On the peak phase of proteinuria at 48 hours after the first LPS injection, either delivery solution (control), dynR725A or dynL356Q, G358V dynamin mutants were transferred and the morphology of podocyte FP was analyzed and the degree of proteinuria was determined 10 hours later when there was strong expression of the transferred gene in podocytes. […] A dramatic reformation of podocyte FPs was also observed (FIG. 6C). The same observation was true for L356Q, G358V (FIG. 6D) which was able to reduce proteinuria from 1.20 mg/ml to 0.71 mg/ml). From the in vitro data it was determined that R725A starts to self assemble into higher order structures in the LPS setting which render dynamin assembly domain protected from cathepsin L cleavage. […] In addition, dominant activating dynR725A proves useful because despite causing podocyte damage in wildtype mice, it can resist cathepsin L cleavage by self assembly in the LPS setting and have strong activity by impairment in its GTP hydrolysis.
If dynamin is a target of CatL, then dynL356Q and dynR725A, which are resistant to CatL cleavage, might protect kidneys from LPS. In control mice, two injections of LPS led to FP effacement (FIG. 21C) and a large increase in proteinuria (FIG. 21E, Con).
Next it was examined whether dynL356Q and dynR725A can reverse already established proteinuria. LPS was injected into mice at 0 and 24 hours. At the peak of proteinuria at 48 hours, mice were injected with dynWT, dynL356Q, or dynR725A, and the degree of proteinuria was analyzed 12 hours post injection. […] The rescue could be achieved with both podocin and CMV-driven protein expression.
All animal studies were approved by the MGH Subcommittee for Research Animal Care. C57BL6 mice were obtained from Jackson Laboratory (Bar Harbor, Me.). CatL−/− mice are in a pure C57BL6 background (Nakagawa et al., Science 280, 450-453 (1998)). LPS induced mouse proteinuria model was utilized as previously described (Reiser et al., J Clin Invest 113, 1390-1397 (2004)). Rat PAN nephrosis model was induced by a single intravenous injection of PAN (180 mg/kg body wt; Sigma-Aldrich, St. Louis, Mo.) (Kim et al., Am J Physiol Renal Physiol 286, F922-935 (2004)). […]

Row | Molecule | podocyte motility, in words (podocytes) | Protein in the urine ([1]; Table 2B Prevention, 2xLPS, t = 0) | Protein in the urine ([1]; Table 2B Prevention, 2xLPS, t = 10 h) | Protein in the urine ([1]; Table 2B Prevention, 2xLPS, t = 24 h, listed as Dyn L356Q, G358V) | Protein in the urine ([1]; Table 2B Prevention, 2xLPS, t = 24 h, listed as L356Q, G358V) | Protein in the urine ([1]; Table 2B Prevention, 2xLPS, t = 48 h) | Protein in the urine ([1]; Table 2C Reversal, LPS at 0 and 24 h, t = 0) | Protein in the urine ([1]; Table 2C Reversal, t = 48 h, at gene transfer, listed as Dyn L356Q, G358V) | Protein in the urine ([1]; Table 2C Reversal, t = 48 h, at gene transfer, listed as L356Q, G358V) | Protein in the urine ([1]; Table 2C Reversal, t = 58 h, 10 hours after gene transfer, listed as Dyn L356Q, G358V) | Protein in the urine ([1]; Table 2C Reversal, t = 58 h, 10 hours after gene transfer, listed as L356Q, G358V) | reduction of proteinuria ([1]; gene delivery immediately before LPS injection) | proteinuria ([1]; prevention, after the second dose of LPS) | reduction of proteinuria ([1]; reversal, injected at 48 hours, analyzed 12 hours post injection)
1 | B1 | dramatically increased cell motility |  |  |  |  |  |  |  |  |  |  |  |  | 
2 | B2 |  | 0.21 ± 0.05 mg/mL | 0.26 ± 0.05 mg/mL | 0.47 ± 0.17 mg/mL | 0.47 mg/mL | 0.65 ± 0.10 mg/mL | 0.18 ± 0.08 mg/mL | 1.20 ± 0.27 mg/mL | 1.20 mg/mL | 0.71 ± 0.09 mg/mL | 0.71 mg/mL | ~50% | 0.65 mg/dL | ~50%
3 | B3 | did not change podocyte motility |  |  |  |  |  |  |  |  |  |  |  |  | 
